Measurements: publication PMC7518282

System: PAL
Experiment: plate RNA binding assay (RiboGreen), immobilized PAL
Conditions: 12 mM HEPES/KOH pH 7.2, 135 mM KCl, 10 mM NaCl, 10% w/v glycerol, 0.5 mg/mL heparin, 0.5 mg/mL BSA, 25 C, 30 min, 465 nm light or dark, 100 or 1000 nM RNA

Sequence	binding signal (% (normalization reference)) (blue light 465 nm)	binding signal (% of aptamer 53 in light) (1000 nM RNA, dark (block inferred from row order), mean of 6 printed values)	binding signal (% of aptamer 53 in light)
GGGAGGACGAUGCGGCCCGUACAGCAGCGAUGCGGGUCGCGUGUCCACCCCGGCUCAGACGACUCGCUGAGGAUCCGAGA [aptamer 53]	100	–	–
GGGGUGGAAUCUUUACAGGACUAUCACGGUACAGCACCGAUGCCGGAUAGUCCUGUAAAGAUUCCACUU [SHCDK1m]	–	1.35	3.97
